{
  "source": "the supplement of paper PMC9112550",
  "about": "“Optimization of the antimicrobial peptide Bac7 by deep mutational scanning” (BMC Biology, 2022);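 further: peptides expressed intracellularly from a pBAD plasmid library in pooled LB shake-flask culture, induced with 0.3% L-arabinose, DNA abundance read by NGS, three biological replicates, DESeq2 with apeglm shrinkage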",
  "data": [
    {"system": "Escherichia coli TOP10", "experiment": "shrunken log2 fold change of peptide-encoding DNA abundance (4.5 h post-induction vs induction); higher = less antimicrobial activity (less host growth inhibition)", "conditions": "time post-induction: 4.5 h; library: site-saturation at positions 5, 18, 19, 20", "values": [
      {"sequence": "RRIRVRPPRLPRPRPRPKKRPRP", "shrunken log2 fold change": 0.154},
      {"sequence": "RRIRQRPPRLPRPRPRPANPPRP", "shrunken log2 fold change": -0.234},
      {"sequence": "RRIRVRPPRLPRPRPRPSSDPRP", "shrunken log2 fold change": -0.131},
      {"sequence": "RRIRARPPRLPRPRPRPDWEPRP", "shrunken log2 fold change": 0.334},
      {"sequence": "RRIRHRPPRLPRPRPRPLLNPRP", "shrunken log2 fold change": -0.443},
      {"sequence": "RRIRKRPPRLPRPRPRPNCVPRP", "shrunken log2 fold change": 0.109},
      {"sequence": "RRIRHRPPRLPRPRPRPWRWPRP", "shrunken log2 fold change": 0.16},
      {"sequence": "RRIRVRPPRLPRPRPRPRGCPRP", "shrunken log2 fold change": 0.374},
      {"sequence": "RRIRLRPPRLPRPRPRPNCSPRP", "shrunken log2 fold change": 0.121},
      {"sequence": "RRIRNRPPRLPRPRPRPYLEPRP", "shrunken log2 fold change": -0.00618},
      {"sequence": "RRIRLRPPRLPRPRPRPWCNPRP", "shrunken log2 fold change": -0.121},
      {"sequence": "RRIRGRPPRLPRPRPRPGDRPRP", "shrunken log2 fold change": 1},
      {"sequence": "RRIRDRPPRLPRPRPRPMPGPRP", "shrunken log2 fold change": 0.065},
      {"sequence": "RRIRFRPPRLPRPRPRPWYRPRP", "shrunken log2 fold change": -0.0778},
      {"sequence": "RRIRCRPPRLPRPRPRPVRMPRP", "shrunken log2 fold change": -0.053},
      {"sequence": "RRIRRRPPRLPRPRPRPFKNPRP", "shrunken log2 fold change": 0.0357},
      {"sequence": "RRIRHRPPRLPRPRPRPPINPRP", "shrunken log2 fold change": -0.294},
      {"sequence": "RRIRNRPPRLPRPRPRPFLEPRP", "shrunken log2 fold change": 0.0329},
      {"sequence": "RRIRMRPPRLPRPRPRPRACPRP", "shrunken log2 fold change": 0.593},
      {"sequence": "RRIRQRPPRLPRPRPRPDKPPRP", "shrunken log2 fold change": -0.214},
      {"sequence": "RRIRDRPPRLPRPRPRPSVDPRP", "shrunken log2 fold change": 0.0621},
      {"sequence": "RRIRFRPPRLPRPRPRPNTMPRP", "shrunken log2 fold change": -0.648},
      {"sequence": "RRIRHRPPRLPRPRPRPMQEPRP", "shrunken log2 fold change": -0.01},
      {"sequence": "RRIRLRPPRLPRPRPRPASVPRP", "shrunken log2 fold change": -0.0571},
      {"sequence": "RRIRYRPPRLPRPRPRPKALPRP", "shrunken log2 fold change": 0.178},
      {"sequence": "RRIRPRPPRLPRPRPRPSEFPRP", "shrunken log2 fold change": -0.0966},
      {"sequence": "RRIRIRPPRLPRPRPRPWICPRP", "shrunken log2 fold change": -0.132},
      {"sequence": "RRIRARPPRLPRPRPRPRRMPRP", "shrunken log2 fold change": 0.551},
      {"sequence": "RRIRRRPPRLPRPRPRPDQFPRP", "shrunken log2 fold change": -0.0176},
      {"sequence": "RRIRHRPPRLPRPRPRPYWFPRP", "shrunken log2 fold change": -0.963},
      {"sequence": "RRIRNRPPRLPRPRPRPLKHPRP", "shrunken log2 fold change": -0.239},
      {"sequence": "RRIRARPPRLPRPRPRPFGPPRP", "shrunken log2 fold change": 0.0166},
      {"sequence": "RRIRARPPRLPRPRPRPLDPPRP", "shrunken log2 fold change": 0.244},
      {"sequence": "RRIRIRPPRLPRPRPRPLVVPRP", "shrunken log2 fold change": -0.25},
      {"sequence": "RRIRPRPPRLPRPRPRPADWPRP", "shrunken log2 fold change": 0.434},
      {"sequence": "RRIRVRPPRLPRPRPRPHSAPRP", "shrunken log2 fold change": -0.119},
      {"sequence": "RRIRIRPPRLPRPRPRPIDWPRP", "shrunken log2 fold change": -0.0878},
      {"sequence": "RRIRHRPPRLPRPRPRPIVVPRP", "shrunken log2 fold change": 0.0062},
      {"sequence": "RRIRPRPPRLPRPRPRPMQMPRP", "shrunken log2 fold change": 0.00304},
      {"sequence": "RRIRERPPRLPRPRPRPYMVPRP", "shrunken log2 fold change": -0.832},
      {"sequence": "RRIRDRPPRLPRPRPRPLFMPRP", "shrunken log2 fold change": 0.154},
      {"sequence": "RRIRDRPPRLPRPRPRPRAEPRP", "shrunken log2 fold change": 0.552},
      {"sequence": "RRIRKRPPRLPRPRPRPMPFPRP", "shrunken log2 fold change": 0.0304},
      {"sequence": "RRIRCRPPRLPRPRPRPDYWPRP", "shrunken log2 fold change": -0.437},
      {"sequence": "RRIRYRPPRLPRPRPRPKYLPRP", "shrunken log2 fold change": 0.00379},
      {"sequence": "RRIRIRPPRLPRPRPRPQRQPRP", "shrunken log2 fold change": 0.098},
      {"sequence": "RRIRYRPPRLPRPRPRPISIPRP", "shrunken log2 fold change": -0.134},
      {"sequence": "RRIRQRPPRLPRPRPRPPLWPRP", "shrunken log2 fold change": 0.494},
      {"sequence": "RRIRCRPPRLPRPRPRPCKDPRP", "shrunken log2 fold change": -0.142},
      {"sequence": "RRIRFRPPRLPRPRPRPRASPRP", "shrunken log2 fold change": 0.33},
      {"sequence": "RRIRYRPPRLPRPRPRPFWYPRP", "shrunken log2 fold change": -0.234},
      {"sequence": "RRIRARPPRLPRPRPRPMAYPRP", "shrunken log2 fold change": 0.546},
      {"sequence": "RRIRNRPPRLPRPRPRPHYHPRP", "shrunken log2 fold change": -0.142},
      {"sequence": "RRIRERPPRLPRPRPRPETEPRP", "shrunken log2 fold change": 0.192},
      {"sequence": "RRIRNRPPRLPRPRPRPAWAPRP", "shrunken log2 fold change": -0.0271},
      {"sequence": "RRIRLRPPRLPRPRPRPHPFPRP", "shrunken log2 fold change": 0.0808},
      {"sequence": "RRIRCRPPRLPRPRPRPKAKPRP", "shrunken log2 fold change": 0.0298},
      {"sequence": "RRIRSRPPRLPRPRPRPIPGPRP", "shrunken log2 fold change": -0.0336},
      {"sequence": "RRIRFRPPRLPRPRPRPTSVPRP", "shrunken log2 fold change": -0.0668},
      {"sequence": "RRIRCRPPRLPRPRPRPESVPRP", "shrunken log2 fold change": 0.025},
      {"sequence": "RRIRDRPPRLPRPRPRPREDPRP", "shrunken log2 fold change": 0.293},
      {"sequence": "RRIRERPPRLPRPRPRPSQDPRP", "shrunken log2 fold change": -0.137},
      {"sequence": "RRIRQRPPRLPRPRPRPDKWPRP", "shrunken log2 fold change": -0.00997},
      {"sequence": "RRIRRRPPRLPRPRPRPKGPPRP", "shrunken log2 fold change": 0.465},
      {"sequence": "RRIRVRPPRLPRPRPRPRFSPRP", "shrunken log2 fold change": -0.17},
      {"sequence": "RRIRIRPPRLPRPRPRPRAQPRP", "shrunken log2 fold change": 0.27},
      {"sequence": "RRIRRRPPRLPRPRPRPPSMPRP", "shrunken log2 fold change": 0.426},
      {"sequence": "RRIRSRPPRLPRPRPRPLSNPRP", "shrunken log2 fold change": -0.00773},
      {"sequence": "RRIRRRPPRLPRPRPRPHCTPRP", "shrunken log2 fold change": -0.18},
      {"sequence": "RRIRERPPRLPRPRPRPKPQPRP", "shrunken log2 fold change": 0.309},
      {"sequence": "RRIRQRPPRLPRPRPRPCDRPRP", "shrunken log2 fold change": -0.0449},
      {"sequence": "RRIRYRPPRLPRPRPRPQTIPRP", "shrunken log2 fold change": -0.0196},
      {"sequence": "RRIRDRPPRLPRPRPRPKGMPRP", "shrunken log2 fold change": -0.00453},
      {"sequence": "RRIRHRPPRLPRPRPRPRRGPRP", "shrunken log2 fold change": 0.343},
      {"sequence": "RRIRYRPPRLPRPRPRPFPTPRP", "shrunken log2 fold change": -0.781}
    ]}
  ]
}
